Data taken from patent US20200024330A1.

Tests used:
Assay in all cases: cell-based or functional assay
[1] = biological target: HIV-1 Env of isolate MGRM-AG-006 (HIV-1)
[2] = biological target: HIV-1 Env of isolate MGRM-AG-013 (HIV-1)
[3] = biological target: aMLV envelope (negative control pseudovirus)
[4] = biological target: HIV-1 Env of isolate MGRM-AG-002 (HIV-1)
[5] = biological target: HIV-1 Env of isolate MGRM-AG-003 (HIV-1)
[6] = biological target: HIV-1 envelope glycoprotein (Env) of isolate MGRM-C-028, on pseudovirus (HIV-1)
[7] = biological target: HIV-1 Env of isolate MGRM-AG-009 (HIV-1)
[8] = biological target: HIV-1 Env of isolate MGRM-G-016 (subtype G) (HIV-1)
[9] = biological target: HIV-1 envelope glycoprotein (Env) of isolate MGRM-C-014, on pseudovirus (HIV-1)
[10] = biological target: HIV-1 Env of isolate MGRM-AG-001 (HIV-1)
[11] = biological target: HIV-1 Env of isolate MGRM-G-004 (subtype G) (HIV-1)
[12] = biological target: HIV-1 Env of isolate MGRM-G-014 (subtype G) (HIV-1)
[13] = biological target: HIV-1 envelope glycoprotein (Env) of isolate MGRM-C-019, on pseudovirus (HIV-1)
[14] = biological target: HIV-1 Env of isolate MGRM-AG-008 (HIV-1)
[15] = biological target: HIV-1 Env of isolate MGRM-AE-007 (HIV-1)
[16] = biological target: HIV-1 Env of isolate MGRM-AG-012 (HIV-1)
[17] = biological target: HIV-1 envelope glycoprotein (Env) of isolate MGRM-C-020, on pseudovirus (HIV-1)
[18] = biological target: HIV-1 envelope glycoprotein (Env) of isolate MGRM-C-027, on pseudovirus (HIV-1)
[19] = biological target: HIV-1 Env of isolate MGRM-G-001 (subtype G) (HIV-1)
[20] = biological target: HIV-1 Env of isolate MGRM-G-025 (subtype G) (HIV-1)
[21] = biological target: HIV-1 Env of isolate MGRM-G-011 (subtype G) (HIV-1)
[22] = biological target: HIV-1 Env of isolate MGRM-G-028 (subtype G) (HIV-1)
[23] = biological target: HIV-1 Env of isolate MGRM-G-027 (subtype G) (HIV-1)
[24] = biological target: HIV-1 envelope glycoprotein (Env) of isolate MGRM-C-026, on pseudovirus (HIV-1)
[25] = biological target: HIV-1 Env of isolate MGRM-G-015 (subtype G) (HIV-1)
[26] = biological target: HIV-1 Env of isolate MGRM-G-009 (subtype G) (HIV-1)
[27] = biological target: HIV-1 envelope glycoprotein (Env) of isolate MGRM-C-025, on pseudovirus (HIV-1)
[28] = biological target: HIV-1 Env of isolate MGRM-AG-011 (HIV-1)
[29] = biological target: HIV-1 Env of isolate MGRM-G-024 (subtype G) (HIV-1)
[30] = biological target: HIV-1 envelope glycoprotein (Env) of isolate MGRM-C-023, on pseudovirus (HIV-1)
[31] = biological target: HIV-1 Env of isolate MGRM-G-019 (subtype G) (HIV-1)
[32] = biological target: HIV-1 Env of isolate MGRM-AE-008 (HIV-1)
[33] = biological target: HIV-1 envelope glycoprotein (Env) of isolate MGRM-C-017, on pseudovirus (HIV-1)
[34] = biological target: HIV-1 envelope glycoprotein (Env) of isolate MGRM-C-024, on pseudovirus (HIV-1)
[35] = biological target: HIV-1 envelope glycoprotein (Env) of isolate MGRM-C-022, on pseudovirus (HIV-1)
[36] = biological target: HIV-1 Env of isolate MGRM-AG-005 (HIV-1)
[37] = biological target: HIV-1 envelope glycoprotein (Env) of isolate MGRM-C-015, on pseudovirus (HIV-1)
[38] = biological target: HIV-1 Env of isolate MGRM-G-006 (subtype G) (HIV-1)
[39] = biological target: HIV-1 Env of isolate MGRM-G-013 (subtype G) (HIV-1)
[40] = biological target: HIV-1 Env of isolate MGRM-G-017 (subtype G) (HIV-1)

Substance: PGT-145 (4995_P16) (antibody)
- IC50 [1]: 6.6 µg/mL
- IC50 [2]: 14.4 µg/mL
- neutralization IC50 [3]: > 50 µg/mL
- IC50 [4]: 0.056 µg/mL
- IC50 [5]: > 50 µg/mL
- IC50, pseudovirus neutralization [6]: 0.099 µg/mL
- IC50 [7]: > 50 µg/mL
- neutralization IC50 [8]: 0.081 µg/mL
- IC50, pseudovirus neutralization [9]: 5.82 µg/mL
- IC50 [10]: 0.164 µg/mL
- neutralization IC50 [11]: > 50 µg/mL
- neutralization IC50 [12]: 0.144 µg/mL
- IC50, pseudovirus neutralization [13]: 0.005 µg/mL
- IC50 [14]: 0.244 µg/mL
- IC50 [15]: 0.181 µg/mL
- IC50 [16]: > 50 µg/mL
- IC50, pseudovirus neutralization [17]: 0.712 µg/mL
- IC50, pseudovirus neutralization [18]: 0.095 µg/mL
- neutralization IC50 [19]: 0.028 µg/mL
- neutralization IC50 [20]: > 50 µg/mL
- neutralization IC50 [21]: 0.028 µg/mL
- neutralization IC50 [22]: 0.046 µg/mL
- neutralization IC50 [23]: 0.433 µg/mL
- IC50, pseudovirus neutralization [24]: > 50 µg/mL
- neutralization IC50 [25]: 10.5 µg/mL
- neutralization IC50 [26]: 0.982 µg/mL
- IC50, pseudovirus neutralization [27]: 0.044 µg/mL
- IC50 [28]: 0.003 µg/mL
- neutralization IC50 [29]: 0.06 µg/mL
- IC50, pseudovirus neutralization [30]: 0.201 µg/mL
- neutralization IC50 [31]: 0.041 µg/mL
- IC50 [32]: 1.46 µg/mL
- IC50, pseudovirus neutralization [33]: > 50 µg/mL
- IC50, pseudovirus neutralization [34]: 0.174 µg/mL
- IC50, pseudovirus neutralization [35]: 0.492 µg/mL
- IC50 [36]: 0.045 µg/mL
- IC50, pseudovirus neutralization [37]: 0.12 µg/mL
- neutralization IC50 [38]: 0.286 µg/mL
- neutralization IC50 [39]: > 50 µg/mL
- neutralization IC50 [40]: 0.205 µg/mL
